The target of experiment [1] is T1, human Claudin18.1 (CLDN18.1), full length, on cells (human, UniProt P56856 1-261).
T1 construct: HEK293-CLDN18.1 cells carry a fusion with green fluorescent protein (ZsGreen); CHO-K1-CLDN18.1 cells carry pcDNA3.1-CLDN18.1; The cell line is named under assay; also called CLDN18.1-FL; HEK293-CLDN18.1 cells
Nature of the experiment: cellular ELISA, hybridoma supernatant on fixed HEK293-CLDN18.1 cells. The protocol: (§1) HEK293-CLDN18.1 and HEK293-CLDN18.2 cells were cultured separately with DMEM complete culture medium containing 10% fetal bovine serum at 37° C., 5% CO₂. When the cells grew to 80%-90% confluency, they were digested with 0.5 mM EDTA-PBS non-trypsin digestion solution at room temperature, and centrifuged at 1000 rpm for 5 minutes, the supernatant was discarded. Resuspended in DMEM complete culture medium, and the cell concentration was adjusted to 6×10⁵ cells/ml. Cells were plated on 96-well cell plates (Corning) pre-coated with polylysine, 100 μl per well, incubated at 37° C., 5% CO₂ for 24 hours, making cells evenly and completely plated on the bottom of the well. The culture supernatant was aspirated, and the cells were fixed with 4% paraformaldehyde at room temperature for 20 minutes, washed 3 times with 200 μl PBS, 2 minutes at each time. The well plates were blocked with 200 μl of 3% BSA-PBS at 37° C. for 1 hour. […] of subclone culture supernatant was taken and added into the well plate, incubated at 37° C. for 1 hour, washed 5 times with PBS. Incubation with HRP-anti mouse IgG+IgM (Jackson) diluted 1:10000 in blocking solution was performed at 37° C. for 1 hour followed by washing 5 times with PBS. 100 μl of TMB one-component color developing solution was added, protected from light at room temperature for 5-10 minutes, terminated with 2M sulfuric acid, and OD450 was read on the microplate reader. The results are shown in Table 3, subclones of which the hybridoma culture supernatant show strong positive binding to CLDN18.2 (that is, the OD value is 50% higher than the OD value of the positive control) include: S3F10C5, S5H3A6, S5H3B6, S5H3D6, S6F10E7, S6H9B8, S6H9C8, C40B10D9, C42B12D10 and C58B11E11. Among these subclones, S5H3A6, S5H3B6, S5H3D6, C40B10D9, C42B12D10 and C58B11E11 show negative binding to CLDN18.1 cells.

The target in experiment [2] is T2, human Claudin18.2 (CLDN18.2), full length, on cells (human).
T2 construct: also called CLDN18.2-FL; HEK293-CLDN18.2 cells
Nature of the experiment: cellular ELISA, hybridoma supernatant on fixed HEK293-CLDN18.2 cells. How it is done:
as §1

The target of experiment [3] is T2, human Claudin18.2 (CLDN18.2), full …. Nature of the experiment: cell-based or functional assay.
Experiment [4] shares this target. Description: cell-based or functional assay. The source holds these as a separate data set.
Experiment [5] shares this target. Description: FACS on NUGC4 cells. From the text: (§2) Human gastric cancer cells NUGC4 and stably transfected cells CHO-K1-CLDN18.1 (prepared in Example 5) were used respectively, to verify the specificity and affinity of the anti-CLDN18.2 antibodies above at the cellular level by FAGS technology. After antibody affinity maturation and screening in vitro, each antibody can bind to the CLDN18.2 target on NUGC4 cells, but not to CHO-K1-CLDN18.1 cells, as compared with the original 3CHI antibody.

Experiment [6] addresses T1, human Claudin18.1 (CLDN18.1), full …. Nature of the experiment: cellular ELISA.
Experiment [7] deals with T2, human Claudin18.2 (CLDN18.2), full …. Nature of the experiment: cell-based or functional assay. This is another data set of the same source.
Experiment [8] deals with T3, antigen protein Claudin18.2-His (human, UniProt P56856-2 1-261, limits assumed).
T3 construct: also called CLDN18.2 protein
Description: BLI (Fortebio Octet RED96), antibody on AHC sensor, Claudin18.2-His in solution, 37 °C. How it is done:
Next, antibodies were immobilized by the AHC sensor, and then combined with different concentrations of antigens, and determination of the affinity was performed according to the manual of Octet RED96.

In experiment [9] the target is T1, human Claudin18.1 (CLDN18.1), full …. Description: FACS on CHO-K1-CLDN18.1 cells.
Source text: as §2

Experiment [10] has as its target T2, human Claudin18.2 (CLDN18.2), full …. Nature of the experiment: cellular ELISA on fixed HEK293-CLDN18.2 cells. How it is done:
HEK293-CLDN18.1 and HEK293-CLDN18.2 cells were resuscitated two weeks in advance, cultured with DMEM complete culture medium containing 10% fetal bovine serum at 37° C., 5% CO₂. When the cells grew to 80%-90% confluency, they were digested with 0.5 mM EDTA-PBS (Sigma) at room temperature, centrifuged at 1000 rpm for 5 minutes, the supernatant was discarded. Cells were resuspended in DMEM complete culture medium, the cell concentration was adjusted to 6×10⁵ cells/ml. Cells were plated on 96-well cell plates (Corning) pre-coated with polylysine at 2.5 μg/well, 100 μl per well, incubated at 37° C., 5% CO₂ for 24 hours, making cells evenly and completely plated on the bottom of the well. The supernatant was aspirated, and the cells were fixed with 4% paraformaldehyde at room temperature for 20 minutes, washed 3 times with 200 μl PBS, 2 minutes at each time. The well plates were blocked with 200 μl of 3% BSA-PBS at 37° C. for 1 hour. Each chimeric antibody was diluted with 3% BSA-PBS to a concentration of 6 μg/ml, and diluted in a 6-fold gradient to a total of 7 concentrations. At the same time, IMAB362-similar-hG1 diluted in the same concentration gradient as the positive control, and human IgG1, kappa isotype control antibody (hereinafter referred to as Isotype, provided by CrownBio (Taicang) Co., Ltd.) as the negative control were added to HEK293-CLDN18.2 and HEK293-CLDN18.1 cell plates, respectively. The cells were incubated at 37° C. for 1 hour, washed 5 times with PBS. Incubation with HRP-anti human IgG (Jackson) diluted 1:10000 in blocking solution was performed at 37° C. for 1 hour followed by washing 5 times with PBS. 100 μl of TMB one-component color developing solution was added, protected from light at room temperature for 5-10 minutes, terminated with 50 μl of 2M sulfuric acid, OD450 was read on the microplate reader. Data processing: the original data was put into GraphPad 5.0 software for plotting and calculation.

Changes are numbered by the printed parent chain. Where two headings read alike, the source gives them in different places.

B1: B4B10G3 (antibody, V domains shown)
VH: QIQLVQSGPELKKPGETVKISCKASGYTFTNYGMNWVKQAPGKGLKWMGWINTYTGEPTYADDFKGRFAFSLETSASTAYLQINNLKNEDMATYFCARDGQLGLRFAYWGQGTLVTVSA
VL: NIMMTQSPSSLAVSAGEKVTMSCKSSQSVLYSSNQKNYLAWYQQKPGQSPKLLIYWASTRESGVPDRFTGSGSGTDFTLTISSVQAEDLAVYYCHQYLSSRTFGGGTKLEIK
notes: Hybridoma supernatant antibody; murine IgG2b, kappa; also called subclone B4B10G3
As for B1, the OD450 in experiment [1] amounted to 0.2 OD; in [2], 0.343 OD.

B2: 5M (antibody, human IgG1, kappa)
heavy: QVQLQQPGAELVRPGASVKLSCKASGYTFTSYWINWVKQRPGQGLEWIGNIYPSDSYTNYNQKFKDKATLTVDKSSSTAYMQLSSPTSEDSAVYYCTRSWRGNSFDYWGQGTTLTVSSASTKGPSVFPLAPSSKSTSGGTAALGCLVKDYFPEPVTVSWNSGALTSGVHTFPAVLQSSGLYSLSSVVTVPSSSLGTQTYICNVNHKPSNTKVDKKVEPKSCDKTHTCPPCPAPELLGGPSVFLLPPKPKDTLMISRTPEVTCVVVDVSHEDPEVKFNWYVDGVEVHNAKTKPPEEQYNSTLRVVSILTVLHQDWLNGKEYKCKVSNKALPAPIEKTISKAKGQPREPQVYTLPPSRDELTKNQVSLTCLVKGFYPSDIAVEWESNGQPENNYKTTPLVLDSDGSFFLYSKLTVDKSRWQQGNVFSCSVMHEALHNHYTQKSLSLSPGK
light: DIVMTQSPSSLTVTAGEKVTMSCKSSQSLLNSGNQKNYLTWYQQKPGQPPKLLIYWASTRESGVPDRFTGSGSGTDFTLTISSVQAEDLAVYYCQNDYSYPFTFGSGTKLEIKRTVAAPSVFIFPPSDEQLKSGTASVVCLLNNFYPREAKVQWKVDNALQSGNSQESVTEQDSKDSTYSLSSTLTLSKADYEKHKVYACEVTHQGLSSPVTKSFNRGEC
For the molecule B2, in experiment [3], the “ADCC activity by luciferase labeling, EC50” value came out at 440 pM and the “ADCC activity by luciferase labeling, Top” value turned out to be 98400.

B3: C40B10D9 (antibody, mouse IgM, V domains shown)
VH: QVQLKESGPGLVAPSQSLSITCTVSGFSLTSYGVSWVRQPPGKGLEWLGVIWGDGSTNYHSALISRLSISKDNSKSQVFLKLNSLQTDDTATYYCAGGLRLWFAYWGQGTLVTVSA
VL: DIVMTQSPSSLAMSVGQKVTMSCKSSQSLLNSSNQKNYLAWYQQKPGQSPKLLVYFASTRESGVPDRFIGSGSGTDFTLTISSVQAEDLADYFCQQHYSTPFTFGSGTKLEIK
notes: Hybridoma supernatant antibody; murine IgM, kappa; also called subclone C40B10D9
For B3, the figures for the OD450 in experiment [1] and in [2] were 0.114 OD and 0.664 OD, respectively. Further, the binding result in experiment [1] is “no binding”.

B4: Hu330-2 (antibody, V domains shown)
VH: EVQLVESGGGLVQPGGSLRLSCAASGFGFSDYGMAWVRQAPGKGLEWVSFISNSAYSIYYADTVTGRFTISRDNAKNSLYLQMNSLRAEDTAVYYCARLGRGNSFAYWGQGTLVTVSS
VL: EIVMTQSPPTLSLSPGERVTLSCKSSQSLLNSGNQKNYLTWYQQKPGQAPRLLIYWGSTRESSIPARFSGSGSGTDFTLTISSLQPEDLAVYYCQNELFYPLTFGQGTKLEIK
As for B4, in experiment [4], the “ADCC activity by luciferase labeling, EC50” value was 110 pM and the “ADCC activity by luciferase labeling, Top” value is 65100.

B5: S6H9B8 (antibody, mouse IgG3, V domains shown)
VH: QVQLQQSGAELARPGASVKLSCKASGYTFTSYGISWVKQRTGQGLEWIGEIYPRSGNTYYNEKFKGKATLTADKSSSTAYMELRSLTSEDSAVYFCASLAWFAYWGQGTLVTVSA
VL: DIVMTQAAPSVPVTPGESVSISCRSSKSLLHSNGNTYLYWFLQRPGQSPQLLIYRMSNLASGVPDRFSGSGSGTAFTLRISRVEAEDVGVYYCMQHLEYPYTFGGGTKLEIK
notes: Hybridoma supernatant antibody; murine IgG3, kappa; also called subclone S6H9B8
Turning to B5, the OD450 in experiment [1] amounted to 1.5 OD; in experiment [2], 2.35 OD.

B6: 305CHI (antibody, human IgG1, V domains shown)
VH: EVKLVESGGGLVQPGGSLKLSCAASGFTFSDYGMAWVRQAPRKGPEWVAFISNLAYSIYYADTVTGRFTISRENAKNTLYLEMSSLRSEDTAMYYCARLGYGNSFAYWGQGTLVTVSA
VL: DIVMTQSPSSLTVTAGEKVTMSCKSSQSLLNSGNQKNYLTWYQQKPGQPPKLLIYWASTRESGVPDRFTGSGSGTDFTLTISSVQAEDLAVYYCQNELFYPLTFGAGTKLELK
notes: chimeric with the constant region of human IgG1
On to B6, for which the “MFI (CLDN18.2)” value in experiment [5] is 38900 MFI. For the same molecule, the binding result in experiment [6] was “no binding”. In experiment [7], the “in-vitro ADCC activity, Jurkat-CD16A/NF luciferase reporter, EC50” value is 280 pM and the “in-vitro ADCC activity, Jurkat-CD16A/NF luciferase reporter, Top” value came to 216000. Also, in experiment [8], binding was put at a Kd of 865 pM, the koff amounted to 4.44e-05 s⁻¹ and the on-rate (kon) came to 51300 M⁻¹ s⁻¹. In addition, in experiment [9], the “MFI (CLDN18.1)” value is 68 MFI.

B7: C58B11E11 (antibody, mouse IgG2c, V domains shown)
VH: EVQLQQSGPELVKPGASVKMSCKASGYTFTDYNMHWVKQSHGKSLEWIGYINPNNGGTSYNQKFKGKATLTVNKSSSTAYMELRSLTSEDSAVYYCARIYYGNSFAYWGQGTLVTVSA
VL: B6 VL with E97D, L98Y, F99S, L102F, A106S, L112I
notes: Hybridoma supernatant antibody; murine IgG2c, kappa; also called subclone C58B11E11
As to B7, in [2], the OD450 came to 0.671 OD.

B8: 19CHI (antibody, V domains shown)
VH: QVQLQQSGAELVKPGASVKMSCKASGYTFTTYPIEWMKQNHGKSLEWIGNFHPYNDDTKYNEKFKGKATLTVEKSSSTVYLELSRLTSDDSAVYYCARRGYGSSYAMDYWGQGTSVTVSS
VL: B6 VL with T12S, T14S, T40A, W56G, E97D, L98H, F99S, L102Y, A106G, L112I
notes: Human-murine chimeric antibody with the constant region of human IgG1; also called chimeric antibody of C42B12D10
With B8, the EC50 in experiment [10] was found to be 29900 pM.

B9: C42B12D10 (antibody, mouse IgM, V domains shown)
VH: B8 VH
VL: B6 VL with T12S, T14S, T40A, W56G, E97D, L98H, F99S, L102Y, A106G, L112I
notes: Hybridoma supernatant antibody; murine IgM, kappa; also called subclone C42B12D10
Take B9: the OD450 in experiment [2] was determined as 0.76 OD.

B10: S5H3B6 (antibody, mouse IgM, V domains shown)
VH: B6 VH
VL: B6 VL with E97D, L98Y, F99S
notes: Hybridoma supernatant antibody; murine IgM, kappa; also called subclone S5H3B6
For the molecule B10, in experiment [1], the OD450 stood at 0.152 OD and the binding result is recorded as “no binding”. Also, the OD450 in [2] was determined as 1.38 OD.

The record behind these values is patent publication US20220119517A1 (NANJING SANHOME PHARMACEUTICAL, published 2022).
